Results as given in patent publication US20210347873A1 (SHANGHAI PHARMAEXPLORER, published 2021).
Positions count from the first letter of the chain named.

T1: cynomolgus BLyS (full length, arginine to histidine at position 132) on CHO-K1 cells (cynomolgus, UniProt Q9Y275 1-285 (human entry))
T1 construct: also called cyno BLyS; CHO-K1 cynoBLyS
T1 chain: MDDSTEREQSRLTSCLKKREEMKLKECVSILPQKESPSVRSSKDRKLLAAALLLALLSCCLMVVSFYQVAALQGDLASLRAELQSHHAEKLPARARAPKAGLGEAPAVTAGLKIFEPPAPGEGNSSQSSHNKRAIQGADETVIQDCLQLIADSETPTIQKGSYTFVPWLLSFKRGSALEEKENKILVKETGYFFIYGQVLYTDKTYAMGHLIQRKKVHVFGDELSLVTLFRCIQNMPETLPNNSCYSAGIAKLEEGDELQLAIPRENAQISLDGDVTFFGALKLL

B1: L1D12 (antibody, V domains shown)
VH: QVQLVQSGGGLVQPGGSLRLSCAASGFTVSSNYMSWVRQAPGKGLEWVSVIYSGGSTYYADSVKGRFTISRDNSKNTLYLQMNSLRAEDTAVYYCARGFHDILTGYGMDVWGQGTTVTVSS
VL: SSELTQDPAVSVALGQTVRITCQGDSLRNYYAGWYQQKPGQAPVLVIYGKNNRPSGIPDRFSGSSSGNTASLTITGTQAEDEADYYCSSRDNSGTHLVEFGGGTKLTVL
notes: From a human naive scFv phage library; also called human BLyS antibody L1D12; LID12
B2: 2-1G11 (antibody, V domains shown)
VH: EVQLVESRGGVVQPGRSLRLSCAASGFTFSSYGMHWVRQAPGKGLEWVAVISYDGSNKYYADSVKGRFTISRDNSKNTLYLQMNSLRAEDAAVYYCARDRVDILTGYSIYGMDVWGQGTTVTVSS
VL: EIVMTQSPATLSLSPGERATLSCRASQSVSSYLAWYQQKPGQAPRLLIYDASKRATGIPARFSGSGSGTDFTLTISSLEPEDFAVYYCQQRSNWPLTFGGGTKVEIK
notes: From a human naive scFv phage library; also called human BLyS antibody 2-1G11
B3: L9G7 (antibody, V domains shown)
VH: QIQLVQSGAEVKKPGASVKVSCKASGYTFTSYGISWVRQAPGQGLEWMGWISAYNGNTNYAQKLQGRVTMTTDTSTSTAYMELRSLRSDDTAVYYCARTYYDILTGYYYYGMDVWGQGTTVTVSS
VL: B2 VL with M4L, A9G, A25T, S30D, S31T, K53N
notes: From a human naive scFv phage library; also called human BLyS antibody L9G7

Columns and labels:
mouse BLyS protein = mouse BLyS protein (mouse, UniProt Q9WU72 69-309); experiment: cell-based or functional assay
Sequence of mouse BLyS protein (Q9WU72 69-309): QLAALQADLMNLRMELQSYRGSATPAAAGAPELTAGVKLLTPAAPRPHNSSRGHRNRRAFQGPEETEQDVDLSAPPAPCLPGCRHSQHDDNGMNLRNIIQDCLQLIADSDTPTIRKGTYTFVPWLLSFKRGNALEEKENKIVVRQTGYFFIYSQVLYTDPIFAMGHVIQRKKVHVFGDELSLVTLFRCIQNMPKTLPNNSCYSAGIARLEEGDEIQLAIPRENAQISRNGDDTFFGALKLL

[1] = target: T2, human BLyS (full length, arginine to histidine at position 132) on CHO-K1 cells (human, UniProt Q9Y275 1-285); experiment: flow cytometry, CHO-K1 hBLyS cells, antibody 0 nM
T2 construct: also called hBLyS; CHO-K1 hBLyS
T2 sequence (Q9Y275 whole entry R130H): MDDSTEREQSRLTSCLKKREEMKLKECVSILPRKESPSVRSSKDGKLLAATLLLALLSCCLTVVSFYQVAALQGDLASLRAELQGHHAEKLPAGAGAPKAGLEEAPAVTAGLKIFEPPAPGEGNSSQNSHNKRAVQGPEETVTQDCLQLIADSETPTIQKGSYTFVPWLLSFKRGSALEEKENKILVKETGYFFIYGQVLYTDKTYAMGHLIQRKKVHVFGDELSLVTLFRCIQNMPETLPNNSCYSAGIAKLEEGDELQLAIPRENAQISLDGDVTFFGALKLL

[2] = target: T2, human BLyS (full length, arginine to …); experiment: flow cytometry, CHO-K1 hBLyS cells, antibody 13.3 nM
[3] = target: T2, human BLyS (full length, arginine to …); experiment: flow cytometry, CHO-K1 hBLyS cells, antibody 2.67 nM
[4] = target: T2, human BLyS (full length, arginine to …); experiment: flow cytometry, CHO-K1 hBLyS cells, antibody 66.7 nM
[5] = target: T2, human BLyS (full length, arginine to …); experiment: flow cytometry, CHO-K1 hBLyS cells, antibody 0.107 nM
[6] = target: T2, human BLyS (full length, arginine to …); experiment: flow cytometry, CHO-K1 hBLyS cells, antibody 0.534 nM
[7] = target: T2, human BLyS (full length, arginine to …); experiment: flow cytometry, CHO-K1 hBLyS cells, antibody 0.0213 nM
[8] = target: T2, human BLyS (full length, arginine to …); experiment: flow cytometry, CHO-K1 hBLyS cells, antibody 0.00427 nM
[9] = target: T1, cynomolgus BLyS (full length, arginine …); experiment: flow cytometry, CHO-K1 cynoBLyS cells, antibody 13.3 nM
[10] = target: T1, cynomolgus BLyS (full length, arginine …); experiment: flow cytometry, CHO-K1 cynoBLyS cells, antibody 0.0213 nM

Binder | mouse B lymphocyte proliferation (OD450 nm), antibody 0 nM (mouse BLyS protein) [OD450 nm] | mouse B lymphocyte proliferation (OD450 nm), antibody 0.000256 nM (mouse BLyS protein) [OD450 nm] | mouse B lymphocyte proliferation (OD450 nm), antibody 0.00128 nM (mouse BLyS protein) [OD450 nm] | mouse B lymphocyte proliferation (OD450 nm), antibody 0.0064 nM (mouse BLyS protein) [OD450 nm] | mouse B lymphocyte proliferation (OD450 nm), antibody 0.032 nM (mouse BLyS protein) [OD450 nm] | mouse B lymphocyte proliferation (OD450 nm), antibody 0.16 nM (mouse BLyS protein) [OD450 nm] | mouse B lymphocyte proliferation (OD450 nm), antibody 0.8 nM (mouse BLyS protein) [OD450 nm] | mouse B lymphocyte proliferation (OD450 nm), antibody 4 nM (mouse BLyS protein) [OD450 nm] | mouse B lymphocyte proliferation (OD450 nm), antibody 20 nM (mouse BLyS protein) [OD450 nm] | mouse B lymphocyte proliferation (OD450 nm), antibody 100 nM (mouse BLyS protein) [OD450 nm] | MFI [1] [MFI] | MFI [2] [MFI] | MFI [3] [MFI] | MFI [4] [MFI] | MFI [5] [MFI] | MFI [6] [MFI] | MFI [7] [MFI] | MFI [8] [MFI] | MFI [9] [MFI] | MFI [10] [MFI]
B1 | 2340 | 2450 | 2610 | 2500 | 2460 | 2520 | 2410 | 2560 | 2460 | 2450 | 101 | 522 | 503 | 550 | 205 | 413 | 89.5 | 54.4 | 1130 | 135
B2 | 2320 | 2450 | 2560 | 2610 | 2470 | 2750 | 2820 | 2460 | 2680 | 2490 | 186 | 633 | 627 | 645 | 403 | 591 | 180 | 107 | 1450 | 332
B3 | 2100 | 2430 | 2480 | 2460 | 2340 | 2260 | 640 | 308 | 243 | 221 | 101 | 630 | 591 | 697 | 226 | 469 | 93 | 51.6 | 1280 | 143
